Test results published in patent US20210309722A1.

Target: GLP-1 receptor
Assay: cell-based or functional assay

- EC50, cAMP production (cAMP-inducible luciferase reporter) in HEK293 cells expressing GLP1R: 3.1 pM
Substance: native human GLP-1 (7-37) (from UniProt P01275 21-180) (peptide)
